Measured values from the supplement of paper PMC9170038.

System: MS2 coat protein
Assay: apparent KD of MS2 coat protein; designed switch direction (-1 OFF switch, 1 ON switch): -1; higher = weaker reporter binding
How it was run: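 SNAP-549-labelled MS2 coat protein was titrated, doubling from 0.7 or 1.5 nM to 3 µM, over designed RNA switches transcribed on Illumina chips by stalled E. coli RNA polymerase. Runs were done without input, with 200 uM small-molecule ligand, or with an oligonucleotide input. Apparent KD is the per-design median over clusters of curve-fitted normalised fluorescence.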

[1] = Eterna round: R95, input ligand: microRNA oligo, concentration not stated
[2] = Eterna round: R95, input ligand: FMN 200 uM
[3] = Eterna round: R95, input ligand: none
[4] = input ligand: microRNA oligo, concentration not stated

Row | Sequence | apparent KD of MS2 coat protein [1] [µM] | apparent KD of MS2 coat protein (input ligand: FMN 200 uM) [µM] | apparent KD of MS2 coat protein (input ligand: none) [µM] | apparent KD of MS2 coat protein [2] [µM] | apparent KD of MS2 coat protein [3] [µM] | apparent KD of MS2 coat protein [4] [µM]
1 | UCGGUGCGAGGAUAUACGUUUGCGCGUUUUCGUUUGCGCGUACAUGAGGAUCACCCAUGUAGAAGGCGCGCGGC [Apr-15 SS2-12] (puzzle: Exclusion 2) | 0.0118 | – | – | – | – | –
2 | AGGUGAGCCGUCAGGAUAUGCGUUCCGUAGGGUCAGCAGAAGGGACAUGAGGAUCACCCAUGUUUCGCACGUGG [Veraxedi] (puzzle: Brourd's mod of Exclusion 4) | 0.031 | – | – | – | – | –
3 | AAUCAGUGUGUGAGGAUAUUGGUGGAAUGACUUAUUAAGAAGGCACAUGAGGAUCACCCAUGUGGGAAGUCACG [JR_BMEx4_Sub016] (Eterna round: R97, puzzle: Brourd's mod of Exclusion 4) | – | 0.0116 | 0.0128 | – | – | –
4 | CUCAUGUGAGGAUAUAGUGCGUCUUCUAUUAUUAUUGAGUACUAGAAGGCACAUGAGGAUCACCCAUGUAGCAC [Ex4 - 3 - 45] (puzzle: Exclusion 4) | 0.0419 | – | – | – | – | –
5 | AGUUCUAACACGUUGGUGUUAGUACCAUAAGCUUGUGAUACAUGAGGAUCACCCAUGUCCUCAUAAGCUCGUCUUAU [salish99_TOv2_r3_1001] (puzzle: Sensor v3, turn-off variant 2) | 0.4 | – | – | 0.0268 | 0.0219 | –
6 | CGUGUGUGAGGAUAUGACAAUGGUAUCUUCGGAUACCAUUGUCAGAAGGUACAUGAGGAUCACCCAUGUAGAUC [Exclusion 4 - Mod Brourd Ex 4-3: 20 v.2] (Eterna round: R96, puzzle: Exclusion 4) | – | 0.115 | 0.0598 | – | – | 0.0414
7 | GCCGAAAAUGUGAGGAUAUACCUAUGGAAACAUAGGUAGAAGGCACAUGAGGAUCACCCAUGUCCAAUAACGGC [Mat - Exclusion 4 - Eli Mod - D25] (Eterna round: R97, puzzle: Brourd's mod of Exclusion 4) | – | 0.664 | 0.287 | – | – | –
8 | AGUAGUAGUAUCCGAUCCGACAUGAGGAUCACCCAUGUAGCUAGACGUGCACGCGAUGCUCGUCAGACUACCAGAUG [salish99_TOv1_r3_037] (puzzle: Sensor v3, turn-off variant 1) | 0.1 | – | – | 0.102 | 0.0741 | –
9 | UGUGCGUCAGGAUAUUCUAUUUAUUACAUGAGGAUCACCCAUGUGAAUGUACAAGGGUGUGAAGAAGGGACUUGUG [LRO-Excl5-03-mod A17d by Omei] (Eterna round: R97, puzzle: Exclusion 5) | – | 0.808 | 1.09 | – | – | –
10 | GCCGUUAAGGUAGGAUAUGCUCGGUCUGUUCGUGCAGAAGGGCUGGUCGGCGACUUGAGGAUCACCCAAGUGGUCUUAUAGAAA [Mutated MS2 EX1.19] (Eterna round: R96, puzzle: Exclusion NG 1) | – | 0.0996 | 0.0548 | – | – | 0.0523
11 | GCACGGUAAGUGAGGAUAUACCUCUGGAUACAGAGGUAGAAGGCACAUGAGGAUCACCCAUGUUCCAGCCGUGC [Fiskers BMX 4 - 86] (puzzle: Brourd's mod of Exclusion 4) | 0.0147 | – | – | – | – | –
12 | AAUUUACAUGAGGAUCACCCAUGUCAGGAUAUGGUUUUAUUUUUUUUUUUUUUUUAUUCCAGAAGGGACAGUUA (puzzle: Exclusion 1) | 0.017 | – | – | 0.0242 | 0.0148 | –
13 | CGAACCCGAGGAUAUCGUAAACCCGACAUGAGGAUCACCCAUGUCAUCCUCACGGCGCCACGAGAAGGCGGUGUUU [Leinat] (puzzle: Exclusion 5) | 0.0437 | – | – | – | – | –
14 | UUUUUCAGGCCAGAUCCUCACAUGAGGAUCACCCAUGUGCUCGUCUGUUUUCGCGCUAGCUUUUUUUUGGUAGGGCU [Level Boss var2-17] (puzzle: Sensor v3, turn-off variant 1) | 0.0297 | – | – | 0.329 | 0.325 | –
15 | GUCCUGCAGCUUUGCUGUAGGCGUACAUGAGGAUCACCCAUGUAGGAUAUGGUAGGCUUUGCUUACUAGAAGGAUAGAGUGAUC [JL EXNG3 1.28] (Eterna round: R96, puzzle: Exclusion NG 3) | – | 0.0431 | 0.0384 | – | – | 0.00708
16 | UAGUGGUUACGUUGGAGUUGUAUGAGCGGAGGCUCUGUGACAUGAGGAUCACCCAUGUAGCUUUUUGCUCGUCUUAA [JR_SV3TOV2_Sub039] (puzzle: Sensor v3, turn-off variant 2) | 0.0415 | – | – | 0.0225 | 0.0226 | –
17 | AUCUUGUCAGGAUAUCUUACAUAACAAUCGUAGUUACCAUUGGAGAAGGGACAUGAGGAUCACCCAUGUUAGCC [tap-tap-tappy42] (Eterna round: R97, puzzle: Exclusion 4) | – | 0.0208 | 0.0198 | – | – | –

Row | Sequence | apparent KD of MS2 coat protein [1] [µM] | apparent KD of MS2 coat protein (input ligand: FMN 200 uM) [µM] | apparent KD of MS2 coat protein (input ligand: none) [µM] | apparent KD of MS2 coat protein [2] [µM] | apparent KD of MS2 coat protein [3] [µM] | apparent KD of MS2 coat protein [4] [µM]
18 | AUAGUAGAAGUGAGGAUAUCGUAGAUUUUAGGAAACGAGAAGGCACAUGAGGAUCACCCAUGUAAGAUGGAGGU [JR_BMOE4_Sub051] (Eterna round: R96, puzzle: Brourd's mod of Exclusion 4) | – | 0.38 | 0.132 | – | – | 0.126
19 | AGCGCGUUCUAGGAUAUCCGGUGGGACACAUACGGAGAAGGAGAAACAUGAGGAUCACCCAUGUAUGGAGAUCG [Eternabot (L1) Solution 7] (Eterna round: R97, puzzle: Exclusion 6) | – | 0.309 | 0.102 | – | – | –
20 | UUGAACUUAGGAUAUUGGUUCAGCUACAUGAGGAUCACCCAUGUGGUACCUAGCUGAGGUCAAGAAGGGAGUGUUG [EX5 B.12] (Eterna round: R97, puzzle: Exclusion 5) | – | 0.0256 | 0.0206 | – | – | –
21 | UAUUAAACAAGCAGAUCCCACAUGAGGAUCACCCAUGUGCUCGUCUUAUAAGGUACUGUGACGAGAGUCACGGUACC [Mat - Sensor, turn-off var - Eli Mod - D63] (Eterna round: R97, puzzle: Sensor, turn-off variant 1) | – | 0.0425 | 0.0452 | – | – | –
22 | CGUGACUGAGGAUAUCUAUAAUAUCACAUGAGGAUCACCCAUGUCCAGCGAAAGCUGGAAGGAGAAGGCAGUCACG [Fiskers Ex 5 - 34] (puzzle: Exclusion 5) | 0.0214 | – | – | 0.0393 | 0.0251 | –
23 | CUUCAAGCACCAGAGCUCACACUUAUACCUGCUCUGGUGACAUGAGGAUCACCCAUGUUUUUUGCCCGUCUUAUCUU [Sensor v3, turn-off variant 2 (MOD of Leso v.2)] (Eterna round: R96, puzzle: Sensor v3, turn-off variant 2) | – | 0.178 | 0.25 | – | – | 0.101
24 | UUUUAACAUGAGGAUCACCCAUGUGAGGAUAUCGAAAUUUAUAUUAAUAUUUAUAUUACGAGAAGGCACAUUUU [JMF 58] (puzzle: Exclusion 1) | 0.0759 | – | – | – | – | –
25 | UUUUAACAUGAGGAUCACCCAUGUCAGGAUAUGGUUUUUUUUUUUUUUUUUUUUUUUUCCAGAAGGGACAUUUU [My solution] (puzzle: Exclusion 1) | 0.00577 | – | – | 0.0425 | 0.00388 | –
26 | AUAUCACAUGAGGAUCACCCAUGUCAGGAUAUCGACUGAACAGCUUCGGCUGUUCAGUCGAGAAGGGACAAUUA [Brourdxlusion 2 - Jieux - Exclusion 1] (Eterna round: R97, puzzle: Exclusion 1) | – | 0.0849 | 0.0562 | – | – | –
27 | GUAAAUCAUGUAGGAUAUGCGUGGCGAAGCUAUGCAGAAGGACAUGAGGAUCACCCAUGUGCUUCCGUCUGAGAACAGACGGAG [Mat - Exclusion NG 1 - Mod of JL - D28] (Eterna round: R96, puzzle: Exclusion NG 1) | – | 0.222 | 0.244 | – | – | 0.116
28 | AGCUAGUCAGGAUAUUCUAAAAAUUACAUGAGGAUCACCCAUGUGAAUGGACAAGGGUGUGAAGAAGGGACUAGCG [Omei Ex5 A11] (Eterna round: R97, puzzle: Exclusion 5) | – | 0.214 | 0.54 | – | – | –
29 | GGAAGGCGAGGAUAUGCAAUAAUACACUAAUUAAUGUGAAAACAUGAGGAUCACCCAUGUAGAAGGCGCGAGAA [AK-MS2ROC-r4-exclusion2-5] (Eterna round: R97, puzzle: Exclusion 2) | – | 0.0212 | 0.0207 | – | – | –
30 | AAAAGGCGAGGAUAUCCGGGCACGGACAUGAGGAUCACCCAUGUGACCUCGCCCGGCGGAGGAGAAGGCGCCGAAG [Biestein] (Eterna round: R97, puzzle: Exclusion 5) | – | 0.368 | 0.158 | – | – | –
31 | AAGAAACAUGAGGAUCACCCAUGUGAGGAUAUGUAAAAUAAAAGAAAAUAAAGAAGAAACAGAAGGCACAAAGG [Mat - Mod of Hog D22] (puzzle: Exclusion 1) | 0.0361 | – | – | 0.0403 | 0.0337 | –
32 | CUGAGUUGAGGAUAUACAUGAGGAUCACCCAUGUAAAGUAGCUUGCGUACAGGCAGAUGUAGAAGGCAAUUCGG [Mod of JL 3 - Jieux - Exclusion 3] (Eterna round: R97, puzzle: Exclusion 3) | – | 0.0376 | 0.0245 | – | – | –
33 | AAAUUAAGUGUGAGGAUAUGCUGGUCCAUAGAUCAGCAGAAGGCACAUGAGGAUCACCCAUGUAAUAUAUUUAA [Mat - Exclusion 4 - JL Mod - D51] (puzzle: Brourd's mod of Exclusion 4) | 0.0294 | – | – | 0.134 | 0.023 | –
34 | CCGCAAAAGCAGGAUAUCGUAUCGGAAACGAUACGAGAAGGGUUUACAUGAGGAUCACCCAUGUUCCUUAGCGG [Mat - Exclusion 6 - Eli Mod - D101] (puzzle: Exclusion 6) | 0.0287 | – | – | – | – | –
